The values that follow come from US20190041402A1 (GOVERNING COUNCIL OF THE UNIVERSITY OF TORONTO, published 2019).

This assay addresses T1, rat αKlotho (endogenous) (rat, UniProt Q9Z2Y9 35-983).
T1 sequence (looked up): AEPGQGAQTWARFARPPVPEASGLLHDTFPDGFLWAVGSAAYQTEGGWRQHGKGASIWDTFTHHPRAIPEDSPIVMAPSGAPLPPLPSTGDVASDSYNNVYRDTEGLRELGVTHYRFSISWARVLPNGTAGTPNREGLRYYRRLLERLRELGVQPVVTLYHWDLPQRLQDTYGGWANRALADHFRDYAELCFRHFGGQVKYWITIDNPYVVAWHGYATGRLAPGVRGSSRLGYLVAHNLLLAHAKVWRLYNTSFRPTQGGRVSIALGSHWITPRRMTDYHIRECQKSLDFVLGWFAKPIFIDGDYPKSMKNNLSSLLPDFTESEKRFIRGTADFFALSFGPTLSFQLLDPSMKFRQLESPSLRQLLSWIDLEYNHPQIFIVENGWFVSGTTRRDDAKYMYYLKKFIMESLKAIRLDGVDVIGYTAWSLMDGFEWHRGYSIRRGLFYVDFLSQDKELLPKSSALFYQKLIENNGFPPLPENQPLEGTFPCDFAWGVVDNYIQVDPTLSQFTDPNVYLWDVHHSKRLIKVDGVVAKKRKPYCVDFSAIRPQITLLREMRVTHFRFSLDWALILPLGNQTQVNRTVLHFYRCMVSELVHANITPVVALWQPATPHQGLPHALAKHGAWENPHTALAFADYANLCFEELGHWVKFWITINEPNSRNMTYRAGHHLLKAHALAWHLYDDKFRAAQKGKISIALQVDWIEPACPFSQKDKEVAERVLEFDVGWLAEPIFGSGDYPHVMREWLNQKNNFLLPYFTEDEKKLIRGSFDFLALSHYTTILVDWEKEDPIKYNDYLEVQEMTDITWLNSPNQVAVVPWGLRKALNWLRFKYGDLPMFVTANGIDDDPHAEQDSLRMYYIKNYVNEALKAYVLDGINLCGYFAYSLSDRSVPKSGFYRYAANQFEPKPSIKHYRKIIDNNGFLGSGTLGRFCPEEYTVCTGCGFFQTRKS
In words: immunohistochemistry, unfixed frozen rat parathyroid tissue. The procedure: For labeling, sections were blocked (PBS, 1.5% BSA, 10% goat serum; 40 min) and incubated with the primary antibody sb106 ([…] in blocking solution; 4° C. overnight). After washing (PBS), sections were incubated with the Alexa 546 goat anti-human IgG (1:800 dilution, Invitrogen) for 1 hour at room temperature. After additional washes with PBS, the sections were fixed with 4% paraformaldehyde in PBS, washed with PBS, and mounted and visualized with a Zeiss LSM510 microscope.
Sb106 was highly reactive against αKlotho under native conditions. Immunoblot signals under denaturing conditions against mouse, rat, and human kidney tissue were weak, but in samples from transgenic mice overexpressing αKlotho [79], sb106-Fab detected a band corresponding to the full-length extracellular domain of αKlotho (FIG. 2A). In cultured cells, sb106-Fab was not able to detect αKlotho in immunoblots under denaturing conditions with lysates from NRK cells expressing native αKlotho but it was able to detect overexpressed antigen in cell lysates from HEK293 cells transfected with αKlotho (FIG. 2B). […] Cells were then incubated with sb106-Fab (5 μg/ml in 1% BSA in PBS) for 1 hr. […]

B1: sb106 IgG (antibody, V domains shown)
VH: EVQLVESGGGLVQPGGSLRLSCAASGFNISYYSIHWVRQAPGKGLEWVAYISPSYGYTSYADSVKGRFTISADTSKNTAYLQMNSLRAEDTAVYYCARYYVYASHGWAGYGMDYWGQGTLVTVSS
VL: DIQMTQSPSSLSASVGDRVTITCRASQSVSSAVAWYQQKPGKAPKLLIYSASSLYSGVPSRFSGSRSGTDFTLTISSLQPEDFATYYCQQAGYSPITFGQGTKVEIKR
notes: also called sb106 (48) full length IgG
Regarding B1, the binding result is on record as “binds”.
